Experimental data as given in patent US20020004209A1, “Use of SLIM3 for binding to molecules” (Schering Aktiengesellschaft Patents, priority 1999, published 2002).

Assays:
[1] = molecular target: T1, glucocorticoid receptors (Homo sapiens, UniProt P04150); test: GST-protein-interaction test; assay type: binding; settings: in vitro
T1 construct: made in house; host or cells: in vitro translation, 35S-methionine labelled
T1 sequence (P04150 1-777): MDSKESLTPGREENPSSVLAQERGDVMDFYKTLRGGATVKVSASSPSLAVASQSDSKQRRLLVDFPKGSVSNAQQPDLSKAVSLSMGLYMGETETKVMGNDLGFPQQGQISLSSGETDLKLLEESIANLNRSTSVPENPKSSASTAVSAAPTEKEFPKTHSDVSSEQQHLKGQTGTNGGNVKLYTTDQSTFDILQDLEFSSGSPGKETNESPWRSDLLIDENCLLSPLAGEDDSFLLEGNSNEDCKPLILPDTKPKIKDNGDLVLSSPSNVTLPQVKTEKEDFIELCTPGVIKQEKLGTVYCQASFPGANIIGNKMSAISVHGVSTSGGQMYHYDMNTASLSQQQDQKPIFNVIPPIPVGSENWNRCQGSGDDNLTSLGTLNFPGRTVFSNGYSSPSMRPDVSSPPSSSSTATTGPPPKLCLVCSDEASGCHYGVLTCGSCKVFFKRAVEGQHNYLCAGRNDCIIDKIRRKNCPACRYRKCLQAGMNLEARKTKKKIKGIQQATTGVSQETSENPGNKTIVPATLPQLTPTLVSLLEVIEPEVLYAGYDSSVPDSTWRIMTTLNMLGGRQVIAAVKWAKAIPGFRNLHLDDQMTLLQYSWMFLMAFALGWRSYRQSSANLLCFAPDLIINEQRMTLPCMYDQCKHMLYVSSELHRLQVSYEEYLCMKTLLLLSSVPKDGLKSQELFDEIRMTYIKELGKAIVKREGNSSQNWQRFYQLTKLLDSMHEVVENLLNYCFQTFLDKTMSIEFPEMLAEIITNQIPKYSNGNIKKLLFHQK
Method: To measure the interaction between SLIM3 and the nuclear receptors in vitro, the GST-Slim3 fusion protein was immobilized by means of glutathione-sepharose and incubated with several in vitro-translated ^35S-methionine-labeled nuclear receptors. The complete human androgen receptor binds to GST-Slim3. This in vitro interaction is not ligand-dependent under standard conditions. The complete human androgen receptor binds specifically to GST-Slim3, but not to the GST protein alone. To safeguard the specificity between the human androgen receptor and SLIM3, another GST-protein-interaction test was carried out (GST-protein-interaction assay). This test is described in E. PFITZNER et al. (1995) Functional Antagonism Between the Retinoid Acid Receptor and the Viral Transactivator BZLF1 is Mediated by Protein-Protein Interactions. Proc Natl Acad Sci USA Vol. 92, pp. 12265-12269.

[2] = molecular target: co-activator SRC1 (Homo sapiens, UniProt Q15788); test: GST-protein-interaction test; assay type: binding; settings: in vitro
[3] = tested on: DNA; test: DNA binding

Sequence of co-activator SRC1 (Q15788 whole entry): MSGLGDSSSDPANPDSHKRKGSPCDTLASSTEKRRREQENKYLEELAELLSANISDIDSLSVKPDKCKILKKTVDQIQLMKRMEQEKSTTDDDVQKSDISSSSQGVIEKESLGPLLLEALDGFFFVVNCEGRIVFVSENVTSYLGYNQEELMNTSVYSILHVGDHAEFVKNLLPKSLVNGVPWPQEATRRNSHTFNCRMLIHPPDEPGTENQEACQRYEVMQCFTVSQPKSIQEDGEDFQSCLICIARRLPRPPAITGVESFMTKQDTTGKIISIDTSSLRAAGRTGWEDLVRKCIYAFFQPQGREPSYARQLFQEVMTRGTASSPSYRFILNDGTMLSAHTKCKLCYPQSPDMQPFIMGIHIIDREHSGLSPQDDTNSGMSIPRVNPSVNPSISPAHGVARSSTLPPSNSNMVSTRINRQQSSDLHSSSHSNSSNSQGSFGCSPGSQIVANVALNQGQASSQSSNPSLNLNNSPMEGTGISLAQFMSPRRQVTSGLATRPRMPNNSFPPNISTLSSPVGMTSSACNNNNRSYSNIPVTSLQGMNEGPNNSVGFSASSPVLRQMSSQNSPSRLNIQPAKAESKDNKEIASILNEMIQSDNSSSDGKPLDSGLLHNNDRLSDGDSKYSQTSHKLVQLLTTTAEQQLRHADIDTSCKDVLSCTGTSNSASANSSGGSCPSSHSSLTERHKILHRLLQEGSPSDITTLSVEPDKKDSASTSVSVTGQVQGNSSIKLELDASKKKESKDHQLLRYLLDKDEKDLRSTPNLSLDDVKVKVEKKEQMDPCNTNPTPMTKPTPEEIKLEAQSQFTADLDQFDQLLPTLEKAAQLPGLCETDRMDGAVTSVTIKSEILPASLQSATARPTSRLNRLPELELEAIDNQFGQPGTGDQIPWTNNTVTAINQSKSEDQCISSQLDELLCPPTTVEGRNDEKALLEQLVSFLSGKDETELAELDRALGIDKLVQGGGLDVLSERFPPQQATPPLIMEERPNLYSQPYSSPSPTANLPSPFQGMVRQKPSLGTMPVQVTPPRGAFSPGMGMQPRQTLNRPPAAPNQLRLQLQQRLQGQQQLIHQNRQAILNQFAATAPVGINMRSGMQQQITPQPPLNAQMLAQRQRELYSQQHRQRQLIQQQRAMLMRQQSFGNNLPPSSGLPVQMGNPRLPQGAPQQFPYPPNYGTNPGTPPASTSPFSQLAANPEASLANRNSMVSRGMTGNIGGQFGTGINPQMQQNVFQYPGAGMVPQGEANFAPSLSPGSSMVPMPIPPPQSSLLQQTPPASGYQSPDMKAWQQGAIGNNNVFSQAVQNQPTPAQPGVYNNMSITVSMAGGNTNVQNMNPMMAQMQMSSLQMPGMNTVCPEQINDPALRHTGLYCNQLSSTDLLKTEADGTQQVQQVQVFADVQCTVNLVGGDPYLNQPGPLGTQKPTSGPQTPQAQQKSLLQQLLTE

With “SLIM3: LIM-domain protein of 279 amino acids, co-activator for nuclear receptors AR and ERβ” the “bond to SLIM3” value [1] was “no bond”, the interaction with co-activator [2] was “no interaction” and the “binding to DNA” value [3] was “does not bind”.
